Source: patent US20090202526A1 (RINAT NEUROSCIENCE, published 2009)
Substitutions are numbered along the chain they refer to. Values joined by “and” are separate entries in the source; they are usually repeats but may differ in a detail not shown here. Equal entries are not always repeated.

B1: Fab clone 129(T8) (Fab, V domains shown)
VH: QVQLVQSGAEVKKPGASVKVSCKASGYTFTSYWMHWVRQAPGQGLEWMGEIYPSNGRTNYNEKFKSRATMTGDKSTSTVYMELSSLRSEDTAVYYCARKYYYGNSRRSWYFDVWGQGTTVTVS
VL: DIQMTQSPSSLSASVGDRVTITCRASESVDNYGISFMNWYQQKPGKAPKLLIYAASNQGSGVPSRFSGSGSGTDFTFTISSLQPEDIATYYCQQSKTVPRTFGQGTKLEIKR
B2: Fab clone 129(C2) (Fab, V domains shown)
VH: B1 VH with A68V, K74T, E82Q, R106K
VL: B1 VL with K46Q, A47P, S69T, T97E
B3: Fab clone 129(C14) (Fab, V domains shown)
VH: B1 VH with A68V, G72R, E82H
VL: B1 VL with K46Q, T97E
B4: Fab clone 129(C16) (Fab, V domains shown)
VH: B1 VH with A68V, G72L, K74T, E82Q, R106K
VL: B1 VL with A47P, I52M, T97E
B5: Fab clone 129(C26) (Fab, V domains shown)
VH: B1 VH with A68V, R106S
VL: B1 VL with K46Q, T97S
B6: Fab clone 129(C28) (Fab, V domains shown)
VH: B1 VH with K74T, E82Q, R106Q
VL: B1 VL with K46Q
B7: Fab clone 129(C36) (Fab, V domains shown)
VH: B1 VH with A68V, G72L, E82Q
VL: B1 VL with A47P, T97A
B8: Fab clone 129(T6) (Fab, V domains shown)
VH: B1 VH with A68V, K74T, E82Q, R106K
VL: B1 VL with K46Q, T97E
B9: Fab clone 129(T8)(E10) (Fab, V domains shown)
VH: B1 VH with W33R, M34L, K65E
VL: B1 VL with V29I, M37L, N38A, Q58R
notes: Light chain changes are the same as in A5
B10: Fab clone 129(T8)(E12) (Fab, V domains shown)
VH: B1 VH with M34L, G56S
VL: B1 VL with N31S, Q58L
B11: Fab clone 129(T8)(H8) (Fab, V domains shown)
VH: B1 VH with W33R, M34I, G56S
VL: B1 VL with N38T, Q58L
B12: Fab clone 129(T8)(H8xE10) (Fab, V domains shown)
VH: B1 VH with W33R, M34I, G56S
VL: B1 VL with V29I, M37L, N38A, Q58R
B13: Fab clone 129(T8)(H8xE10)(4B) (Fab, V domains shown)
VH: B1 VH with W33R, M34I, G56S, A68V, K74T
VL: B1 VL with V29I, M37L, N38A, Q58R
B14: Fab clone 129(T8)(H8xE10)(9A) (Fab, V domains shown)
VH: B1 VH with W33R, M34I, G56S, G72R
VL: B1 VL with V29I, M37L, N38A, Q58R
B15: Fab clone 129(T8)(H9) (Fab, V domains shown)
VH: B1 VH with M34R
VL: B1 VL with Q58R
B16: Fab clone 129(T26) (Fab, V domains shown)
VH: B1 VH with A68V, G72L, E82Q
VL: B1 VL with A47P, T97A
B17: Fab clone 129(T34) (Fab, V domains shown)
VH: B1 VH with A68V, G72R, K74T, E82Q
VL: B1 VL with K46Q, A47P
B18: Fab clone 129(T8)(H8xE10)(10B) (Fab, V domains shown)
VH: B1 VH with W33R, M34I, G56S, A68V, G72R, K74T
VL: B1 VL with V29I, M37L, N38A, Q58R
B19: Antibody A5, full IgG (antibody, V domains shown)
VH: QVQLVQSGAEVKKPGASVKVSCKASGYTFTSYRIHWVRQAPGQGLEWMGEIYPSNARTNYNEKFKSRVTMTRDTSTSTVYMELSSLRSEDTAVYYCARKYYYGNTRRSWYFDVWGQGTTVTVSS
VL: B1 VL with V29I, M37L, N38A, Q58R
B20: Mouse monoclonal agonist anti-trkC antibody 2256 (antibody, V domains shown)
VH: QVQLQQPGAELVKPGASVKLSCKASGYTFTSYWMHWVKQRPGQGLEWIGEIYPSNGRTNYNEKFKSKATLTVDKSSSTAYMQLSSLTSEDSAVYYCARKYYYGNSYRSWYFDVWGAGTTLTVS
VL: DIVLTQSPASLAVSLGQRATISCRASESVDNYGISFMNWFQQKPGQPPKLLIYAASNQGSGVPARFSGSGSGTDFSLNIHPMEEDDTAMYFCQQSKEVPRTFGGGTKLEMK
notes: Mouse monoclonal antibody
B21: Fab A5, clone 129(T8)(H8xE10)(10B)(A5) (Fab, V domains shown)
VH: B1 VH with W33R, M34I, G56A, A68V, G72R, K74T, S105T
VL: B1 VL with V29I, M37L, N38A, Q58R
notes: purified on Ni-NTA; also called A5 (Fab)
B22: Fab 2256 (parent) (Fab, V domains shown)
VH: B20 VH
VL: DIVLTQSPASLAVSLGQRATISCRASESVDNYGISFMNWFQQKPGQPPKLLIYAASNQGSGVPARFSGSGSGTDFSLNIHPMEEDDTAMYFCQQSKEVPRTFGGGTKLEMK
B23: Fab clone 129(T8)(H8xE10)(10B)(C7) (Fab, V domains shown)
VH: B1 VH with W33R, M34I, G56T, A68V, G72R, K74T, S105T
VL: B1 VL with V29I, M37L, N38A, Q58R
B24: Fab clone 129(T8)(H8xE10)(10B)(E2) (Fab, V domains shown)
VH: B1 VH with W33R, M34I, A68V, G72R, K74T, S105T
VL: B1 VL with V29I, M37L, N38A, Q58R

molecular target: T1, Human trkC-Fc fusion protein (human, UniProt Q16288 32-429); assay: BIAcore SPR, human trkC-Fc on chip; KD calculated from koff with 2256 kon 5E5 1/Ms
T1 construct: Immobilised on CM5 chip for BIAcore; also called htrkC; not shown: Fc part not described

| Binder | Kd |
| --- | --- |
| B1 | 3 nM |
| B2 | 4.7 nM |
| B3 | 3.2 nM |
| B4 | 4.7 nM |
| B5 | 13.2 nM |
| B6 | 3.6 nM |
| B7 | 3.8 nM |
| B8 | 6.4 nM |
| B9 | 3.2 nM |
| B10 | 1.8 nM |
| B11 | 1.2 nM |
| B12 | 2 nM |
| B13 | 4 nM |
| B14 | 0.6 nM |
| B15 | 3 nM |
| B16 | 2.3 nM |
| B17 | 2.3 nM |
| B18 | 1.6 nM |

molecular target: T2, Human trkB (human, UniProt Q16620 32-430, limits assumed); assay: BIAcore SPR
T2 construct: BIAcore essentially as for trkC; construct not described
T2 sequence (Q16620 32-430 limits assumed): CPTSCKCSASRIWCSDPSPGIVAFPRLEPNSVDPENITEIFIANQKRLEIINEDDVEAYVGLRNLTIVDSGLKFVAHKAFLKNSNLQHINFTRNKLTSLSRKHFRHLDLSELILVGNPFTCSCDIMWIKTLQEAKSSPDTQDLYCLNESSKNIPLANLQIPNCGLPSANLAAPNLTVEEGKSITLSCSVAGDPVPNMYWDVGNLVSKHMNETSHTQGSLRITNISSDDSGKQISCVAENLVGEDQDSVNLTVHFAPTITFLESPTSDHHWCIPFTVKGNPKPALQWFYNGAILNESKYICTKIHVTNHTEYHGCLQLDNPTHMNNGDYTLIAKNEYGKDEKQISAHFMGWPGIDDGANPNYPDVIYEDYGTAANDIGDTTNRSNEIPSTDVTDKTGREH

| Binder | binding result |
| --- | --- |
| B19 | no binding |

molecular target: T3, Rat trkA (rat, UniProt P35739 33-418, limits assumed); assay: BIAcore SPR
T3 construct: BIAcore essentially as for trkC; construct not described
T3 sequence (P35739 33-418 limits assumed): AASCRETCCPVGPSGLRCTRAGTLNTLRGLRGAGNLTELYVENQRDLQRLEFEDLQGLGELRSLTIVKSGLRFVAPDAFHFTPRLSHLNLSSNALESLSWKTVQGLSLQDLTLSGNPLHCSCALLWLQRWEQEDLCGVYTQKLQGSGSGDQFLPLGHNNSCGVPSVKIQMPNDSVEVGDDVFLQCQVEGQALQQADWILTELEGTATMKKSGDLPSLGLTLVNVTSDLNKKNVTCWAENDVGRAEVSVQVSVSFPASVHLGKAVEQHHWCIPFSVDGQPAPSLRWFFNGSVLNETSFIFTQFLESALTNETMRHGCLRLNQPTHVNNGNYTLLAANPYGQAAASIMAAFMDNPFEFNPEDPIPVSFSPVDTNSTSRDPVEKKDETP

| Binder | binding result |
| --- | --- |
| B19 | no binding |

molecular target: T1, Human trkC-Fc fusion protein; assay: BIAcore SPR

| Binder | Kd | fold improvement of affinity over parent antibody 2256 |
| --- | --- | --- |
| B20 | ~62 nM | – |
| B21 | – | 200 fold |

molecular target: T4, Rat trkB (rat, UniProt Q63604 32-429, limits assumed); assay: BIAcore SPR
T4 construct: BIAcore essentially as for trkC; construct not described
T4 sequence (Q63604 32-429 limits assumed): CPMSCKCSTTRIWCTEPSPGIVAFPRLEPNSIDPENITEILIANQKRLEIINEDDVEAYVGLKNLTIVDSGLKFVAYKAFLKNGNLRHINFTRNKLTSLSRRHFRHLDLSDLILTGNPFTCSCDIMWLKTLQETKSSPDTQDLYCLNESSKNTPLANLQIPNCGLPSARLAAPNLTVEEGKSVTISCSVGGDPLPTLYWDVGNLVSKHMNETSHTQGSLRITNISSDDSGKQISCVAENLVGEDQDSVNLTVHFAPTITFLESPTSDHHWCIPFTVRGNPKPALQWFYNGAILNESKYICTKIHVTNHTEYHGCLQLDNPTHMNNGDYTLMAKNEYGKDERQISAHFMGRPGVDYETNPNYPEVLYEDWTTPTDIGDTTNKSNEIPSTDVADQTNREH

| Binder | binding result |
| --- | --- |
| B19 | no binding |

molecular target: T5, Human trkA (human, UniProt P04629 33-423, limits assumed); assay: BIAcore SPR
T5 construct: BIAcore essentially as for trkC; construct not described
T5 sequence (P04629 33-423 limits assumed): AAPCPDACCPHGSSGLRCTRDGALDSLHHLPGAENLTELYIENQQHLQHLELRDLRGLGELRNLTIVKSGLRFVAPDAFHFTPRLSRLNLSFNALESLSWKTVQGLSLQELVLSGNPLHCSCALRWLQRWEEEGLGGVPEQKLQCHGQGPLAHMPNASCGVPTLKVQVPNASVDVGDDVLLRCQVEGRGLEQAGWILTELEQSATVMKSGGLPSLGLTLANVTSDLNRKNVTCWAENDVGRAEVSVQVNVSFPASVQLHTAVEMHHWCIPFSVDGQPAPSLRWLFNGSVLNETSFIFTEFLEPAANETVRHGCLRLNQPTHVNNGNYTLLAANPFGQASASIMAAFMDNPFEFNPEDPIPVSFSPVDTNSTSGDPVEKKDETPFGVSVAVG

| Binder | binding result |
| --- | --- |
| B19 | no binding |

molecular target: T6, Human trkC (KIRA assay) (human, UniProt Q16288 32-839, limits assumed); assay: cell-based or functional assay
T6 sequence (Q16288 32-839 limits assumed): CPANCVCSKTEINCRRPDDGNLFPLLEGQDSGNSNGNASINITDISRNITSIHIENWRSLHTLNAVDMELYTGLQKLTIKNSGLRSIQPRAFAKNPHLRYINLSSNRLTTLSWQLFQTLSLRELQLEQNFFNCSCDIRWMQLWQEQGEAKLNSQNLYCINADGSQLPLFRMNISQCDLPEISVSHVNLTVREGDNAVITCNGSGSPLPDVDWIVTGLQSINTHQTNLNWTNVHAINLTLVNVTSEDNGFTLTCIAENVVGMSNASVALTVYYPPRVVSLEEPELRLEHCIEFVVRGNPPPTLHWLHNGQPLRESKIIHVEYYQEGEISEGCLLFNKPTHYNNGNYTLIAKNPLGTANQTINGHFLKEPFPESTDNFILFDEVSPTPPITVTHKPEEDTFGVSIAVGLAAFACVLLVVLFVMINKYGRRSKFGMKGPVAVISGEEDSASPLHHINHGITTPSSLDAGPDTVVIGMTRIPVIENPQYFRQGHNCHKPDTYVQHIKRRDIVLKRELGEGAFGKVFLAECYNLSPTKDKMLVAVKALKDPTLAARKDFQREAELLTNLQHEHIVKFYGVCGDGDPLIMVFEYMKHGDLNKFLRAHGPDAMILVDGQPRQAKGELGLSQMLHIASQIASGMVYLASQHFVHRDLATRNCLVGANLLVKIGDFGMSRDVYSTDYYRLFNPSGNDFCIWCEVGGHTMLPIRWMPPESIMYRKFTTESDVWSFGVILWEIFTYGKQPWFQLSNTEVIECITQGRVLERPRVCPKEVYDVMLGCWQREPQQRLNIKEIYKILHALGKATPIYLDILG

| Binder | EC50 (read off the curve), KIRA |
| --- | --- |
| B19 | ~0.1 nM |

molecular target: T1, Human trkC-Fc fusion protein; assay: BIAcore SPR, Fab on human trkC
Experimental: (§1) Affinities of anti-trkC Fabs and monoclonal antibodies were determined using the BIAcore 3000™ surface plasmon resonance (SPR) system (BIAcore, INC, Piscaway N.J.). CM5 chips were activated with N-ethyl-N′-(3-dimethylaminopropyl)-carbodiimide hydrochloride (EDC) and N-hydroxysuccinimide (NHS) according to the supplier's instructions. Human or rat trkC-Fc fusion protein was diluted into 10 mM sodium acetate pH 5.0 and injected over the activated chip at a concentration of 0.005 mg/mL. Using variable flow time across the individual chip channels, two ranges of antigen density were achieved: 200-400 response units (RU) for detailed kinetic studies and 500-1000 RU for screening assays. The chip was blocked with ethanolamine. […] HBS-EP buffer (0.01M HEPES, pH 7.4, 0.15 NaCl, 3 mM EDTA, 0.005% Surfactant P20) was used as running buffer for all the BIAcore assays. […] The concentrations of the Fab proteins are determined by ELISA and/or SDS-PAGE electrophoresis using a Fab of known concentration (as determined by amino acid analysis) as a standard. Kinetic association rates (kₒₙ) and dissociation rates (koff) are obtained simultaneously by fitting the data to a 1:1 Langmuir binding model (Karlsson, R. Roos, H. Fagerstam, L. Petersson, B. (1994). Methods Enzymology 6. 99-110) using the BlAevaluation program. Equilibrium dissociation constant (KD) values are calculated as koff/kₒₙ.
(§2) We prepared antibody clones bearing the CDR and/or framework region substitution mutations shown in Table 1 and determine KD and other kinetic parameters using BIAcore analysis as described herein.

| Binder | Kd | koff |
| --- | --- | --- |
| B22 | 40 nM | 0.02 s⁻¹ |
| B21 | 0.28 nM | 0.00037 s⁻¹ |

molecular target: T6, Human trkC (KIRA assay); assay: cell-based or functional assay; remark: another data set of the same source

| Binder | EC50, KIRA assay |
| --- | --- |
| B20 | ~40 nM |

molecular target: Rat trkC on trigeminal neurons (rat, UniProt Q03351 32-864); assay: cell-based or functional assay
Sequence (Q03351 32-864): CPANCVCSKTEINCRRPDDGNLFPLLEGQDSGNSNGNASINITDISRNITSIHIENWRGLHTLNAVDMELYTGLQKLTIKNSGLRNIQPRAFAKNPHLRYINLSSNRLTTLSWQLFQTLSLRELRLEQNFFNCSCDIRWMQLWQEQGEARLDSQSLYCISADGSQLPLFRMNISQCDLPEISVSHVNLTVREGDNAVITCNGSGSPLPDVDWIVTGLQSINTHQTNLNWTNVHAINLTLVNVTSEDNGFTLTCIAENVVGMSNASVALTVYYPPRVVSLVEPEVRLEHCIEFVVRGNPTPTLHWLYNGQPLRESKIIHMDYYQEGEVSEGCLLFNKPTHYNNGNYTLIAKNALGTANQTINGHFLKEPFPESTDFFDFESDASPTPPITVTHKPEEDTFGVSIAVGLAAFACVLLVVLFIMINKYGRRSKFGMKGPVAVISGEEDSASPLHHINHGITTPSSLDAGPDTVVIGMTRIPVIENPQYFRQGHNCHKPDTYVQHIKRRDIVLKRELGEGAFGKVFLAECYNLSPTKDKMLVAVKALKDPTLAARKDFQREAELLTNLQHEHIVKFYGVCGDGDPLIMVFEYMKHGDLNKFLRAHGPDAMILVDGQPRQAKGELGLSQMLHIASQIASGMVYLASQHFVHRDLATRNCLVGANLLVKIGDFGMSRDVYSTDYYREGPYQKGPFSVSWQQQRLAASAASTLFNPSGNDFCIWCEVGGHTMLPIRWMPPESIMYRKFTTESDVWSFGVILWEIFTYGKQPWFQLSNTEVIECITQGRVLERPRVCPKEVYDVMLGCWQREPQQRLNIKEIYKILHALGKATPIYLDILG

| Binder | EC50, rat trigeminal neuron survival assay | EC50, neuron survival |
| --- | --- | --- |
| B20 | ~5 nM | – |
| B19 | – | 1 pM |

molecular target: T1, Human trkC-Fc fusion protein; assay: BIAcore SPR, Fab over immobilised human trkC-Fc
Experimental: as §1, §2

| Binder | koff | Kd | kon |
| --- | --- | --- | --- |
| B1 | 0.0016 s⁻¹ | – | – |
| B21 | 0.00037 s⁻¹ | 0.28 nM | 1.3e+06 M⁻¹ s⁻¹ |
| B2 | 0.0025 s⁻¹ | – | – |
| B3 | 0.0017 s⁻¹ | – | – |
| B4 | 0.0025 s⁻¹ | – | – |
| B5 | 0.007 s⁻¹ | – | – |
| B6 | 0.0019 s⁻¹ | – | – |
| B7 | 0.002 s⁻¹ | – | – |
| B8 | 0.0034 s⁻¹ | – | – |
| B9 | 0.0016 s⁻¹ | – | – |
| B10 | 0.0009 s⁻¹ | – | – |
| B11 | 0.0006 s⁻¹ | – | – |
| B12 | 0.001 s⁻¹ | – | – |
| B13 | 0.002 s⁻¹ | – | – |
| B14 | 0.0003 s⁻¹ | – | – |
| B23 | 0.00047 s⁻¹ | 1.1 nM | 420000 M⁻¹ s⁻¹ |
| B15 | 0.0015 s⁻¹ | – | – |
| B16 | 0.0012 s⁻¹ | – | – |
| B17 | 0.0012 s⁻¹ | – | – |
| B18 | 0.0008 s⁻¹ | – | – |
| B24 | 0.00036 s⁻¹ | 0.25 nM | 1.4e+06 M⁻¹ s⁻¹ |

molecular target: T7, Rat trkC-Fc fusion protein (rat, UniProt Q03351 32-429); assay: BIAcore SPR, Fab over immobilised rat trkC-Fc
T7 construct: Immobilised on CM5 chip for BIAcore; not shown: Fc part not described
Experimental: as §1

| Binder | Kd | koff | kon |
| --- | --- | --- | --- |
| B21 | 19 nM | 0.0267 s⁻¹ | 1.3e+06 M⁻¹ s⁻¹ |
| B12 | – | 0.09 s⁻¹ | – |
| B13 | – | 0.0289 s⁻¹ and 0.0627 s⁻¹ | – |
| B23 | 39 nM | 0.03 s⁻¹ | 780000 M⁻¹ s⁻¹ |
| B18 | – | 0.01 s⁻¹ | – |
| B24 | 6 nM | 0.0094 s⁻¹ | 1.5e+06 M⁻¹ s⁻¹ |

molecular target: T1, Human trkC-Fc fusion protein; assay: BIAcore SPR; value used in the footnote to calculate KD of the mutants

| Binder | kon |
| --- | --- |
| B22 | 500000 M⁻¹ s⁻¹ |
